# Test results published in PMC5512577 (2016).
# Target: phosphodiesterase 6 delta subunit (PDE6δ), N-terminal histidine-tagged (UniProt O43924 1-150)
# Assay: FP; mantGppNHp-loaded Arl; stopped-flow
# phosphodiesterase 6 delta subunit (PDE6δ), N-terminal histidine-tagged, sequence (O43924 whole entry, stated change not applied): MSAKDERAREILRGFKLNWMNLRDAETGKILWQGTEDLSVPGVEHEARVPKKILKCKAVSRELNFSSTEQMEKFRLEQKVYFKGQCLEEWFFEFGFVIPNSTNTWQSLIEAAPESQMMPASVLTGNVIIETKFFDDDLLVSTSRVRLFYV
row,koff [s⁻¹],Binder
1,0.98,"N-terminally truncated Arl2 (aa 17-178), bound to mantGppNHp (domain or fragment) LRLLMLGLDNAGKTTILKKFNGEDVDTISPTLGFNIKTLEHRGFKLNIWDVGGQKSLRSYWRNYFESTDGLIWVVDSADRQRMQDCQRELQSLLVEERLAGATLLIFANKQDLPGALSCNAIQEALELDSIRSHHWRIQGCSAVTGEDLLPGIDWLLDDISS"
2,0.33,"full-length Arl2, C-terminal histidine-tagged, bound to GppNHp or mantGppNHp (natural protein) MGLLTILKKMKQKERELRLLMLGLDNAGKTTILKKFNGEDVDTISPTLGFNIKTLEHRGFKLNIWDVGGQKSLRSYWRNYFESTDGLIWVVDSADRQRMQDCQRELQSLLVEERLAGATLLIFANKQDLPGALSCNAIQEALELDSIRSHHWRIQGCSAVTGEDLLPGIDWLLDDISSRVFTAD"
